Measured values as given in PMC10613254, “Mechanism of synergistic activation of Arp2/3 complex by cortactin and WASP-family proteins” (Nature Communications, 2023).

Assays:
[1] = target: Arp3 (subunit of bovine Arp2/3 complex) (bovine, UniProt P61157 1-418); assay: cryo-EM structure; Bovine Arp2/3 complex (9.0 uM) mixed with Cort_(1-76) (45 uM) in ATP-supplemented KMEI buffer (10 mM imidazole pH 7.0, 50 mM KCl, 2 mM MgCl2, 1 mM EGTA, 0.2 mM ATP), 0.0025% NP-40; details: both partners purified
[2] = target: F-actin (skeletal α-actin, polymerized) (rabbit, UniProt P68135 1-377); assay: co-sedimentation; increasing concentrations of cortactin constructs with constant F-actin (4 uM), ATP-supplemented KMEI buffer, 1 h at RT, 30 min at 278,800 g, SDS-PAGE densitometry; details: both partners purified

Row | binding result [1] | binding result [2] | Binder
1 | binds |  | Cort_(1-76), cortactin N-terminal acidic domain (NTA, residues 1-76) (domain or fragment, mouse cortactin, UniProt Q60598, residues 1-76; the methods say mouse cDNA; Cloned between BamHI and EcoRI of pMAL-c6T; also called cortactin's N-terminal domain; source: E. coli ArticExpress (DE3), purified (amylose, TEV cleavage, Ni-NTA, size exclusion)) MWKASAGHAVSITQDDGGADDWETDPDFVNDVSEKEQRWGAKTVQGSGHQEHINIHKLRENVFQEHQTLKEKELET
2 |  | binds | Cort_(1-79/154-401) (domain or fragment, mouse cortactin, UniProt Q60598, residues 1-79, joined directly to residues 154-401; mouse cortactin, UniProt Q60598, residues 154-401; Internal deletion of residues 80-153; fragments ligated through overhangs coding residues 77-79; source: E. coli ArticExpress (DE3), purified (amylose, TEV cleavage, Ni-NTA, size exclusion)) MWKASAGHAVSITQDDGGADDWETDPDFVNDVSEKEQRWGAKTVQGSGHQEHINIHKLRENVFQEHQTLKEKELETGPKYSSGFGGKYGVQADRVDKSAVGFDYQGKTEKHESQKDYSKGFGGKYGIDKDKVDKSAVGFEYQGKTEKHESQKDYVKGFGGKFGVQTDRQDKCALGWDHQEKLQLHESQKDYKTGFGGKFGVQSERQDSSAVGFDYKERLAKHESQQDYAKGFGGKYGVQKDRMDKNASTFEEVVQVPSAYQKTVPIEAVTSKTSNIRANFENLAKEREQEDRRKAEAERAQRMAKERQEQEEARRKLEEQARAKKQT
3 |  | binds | Cort_(1-227) (domain or fragment, source: E. coli ArticExpress (DE3), purified (amylose, TEV cleavage, Ni-NTA, size exclusion)) MWKASAGHAVSITQDDGGADDWETDPDFVNDVSEKEQRWGAKTVQGSGHQEHINIHKLRENVFQEHQTLKEKELETGPKASHGYGGKFGVEQDRMDRSAVGHEYQSKLSKHCSQVDSVRGFGGKFGVQMDRVDQSAVGFEYQGKTEKHASQKDYSSGFGGKYGVQADRVDKSAVGFDYQGKTEKHESQKDYSKGFGGKYGIDKDKVDKSAVGFEYQGKTEKHESQKD
4 |  | binds | Cort_(1-401) (domain or fragment, mouse cortactin, UniProt Q60598, residues 1-401; source: E. coli ArticExpress (DE3), purified (amylose, TEV cleavage, Ni-NTA, size exclusion)) MWKASAGHAVSITQDDGGADDWETDPDFVNDVSEKEQRWGAKTVQGSGHQEHINIHKLRENVFQEHQTLKEKELETGPKASHGYGGKFGVEQDRMDRSAVGHEYQSKLSKHCSQVDSVRGFGGKFGVQMDRVDQSAVGFEYQGKTEKHASQKDYSSGFGGKYGVQADRVDKSAVGFDYQGKTEKHESQKDYSKGFGGKYGIDKDKVDKSAVGFEYQGKTEKHESQKDYVKGFGGKFGVQTDRQDKCALGWDHQEKLQLHESQKDYKTGFGGKFGVQSERQDSSAVGFDYKERLAKHESQQDYAKGFGGKYGVQKDRMDKNASTFEEVVQVPSAYQKTVPIEAVTSKTSNIRANFENLAKEREQEDRRKAEAERAQRMAKERQEQEEARRKLEEQARAKKQT
